These results are taken from article PMC5821459.

The target in the assay is L1 ORF2p-3xFLAG (ORFeus-Hs, pLD401, WT) (human) (UniProt O00370). The assay can be described thus: affinity purification with mass spectrometry; On-bead RNase-sensitivity assay: ORF2p-3xFLAG (pLD401) captured on α-FLAG magnetic medium from HEK-293T_LD extract in 20 mM HEPES-Na pH 7.4, 500 mM NaCl, 1% Triton X-100; medium treated with RNases A and T1 or with BSA, 30 min RT; retained material eluted with LDS; label-swapped SILAC.
Sequence of UniProt O00370 (O00370 whole entry): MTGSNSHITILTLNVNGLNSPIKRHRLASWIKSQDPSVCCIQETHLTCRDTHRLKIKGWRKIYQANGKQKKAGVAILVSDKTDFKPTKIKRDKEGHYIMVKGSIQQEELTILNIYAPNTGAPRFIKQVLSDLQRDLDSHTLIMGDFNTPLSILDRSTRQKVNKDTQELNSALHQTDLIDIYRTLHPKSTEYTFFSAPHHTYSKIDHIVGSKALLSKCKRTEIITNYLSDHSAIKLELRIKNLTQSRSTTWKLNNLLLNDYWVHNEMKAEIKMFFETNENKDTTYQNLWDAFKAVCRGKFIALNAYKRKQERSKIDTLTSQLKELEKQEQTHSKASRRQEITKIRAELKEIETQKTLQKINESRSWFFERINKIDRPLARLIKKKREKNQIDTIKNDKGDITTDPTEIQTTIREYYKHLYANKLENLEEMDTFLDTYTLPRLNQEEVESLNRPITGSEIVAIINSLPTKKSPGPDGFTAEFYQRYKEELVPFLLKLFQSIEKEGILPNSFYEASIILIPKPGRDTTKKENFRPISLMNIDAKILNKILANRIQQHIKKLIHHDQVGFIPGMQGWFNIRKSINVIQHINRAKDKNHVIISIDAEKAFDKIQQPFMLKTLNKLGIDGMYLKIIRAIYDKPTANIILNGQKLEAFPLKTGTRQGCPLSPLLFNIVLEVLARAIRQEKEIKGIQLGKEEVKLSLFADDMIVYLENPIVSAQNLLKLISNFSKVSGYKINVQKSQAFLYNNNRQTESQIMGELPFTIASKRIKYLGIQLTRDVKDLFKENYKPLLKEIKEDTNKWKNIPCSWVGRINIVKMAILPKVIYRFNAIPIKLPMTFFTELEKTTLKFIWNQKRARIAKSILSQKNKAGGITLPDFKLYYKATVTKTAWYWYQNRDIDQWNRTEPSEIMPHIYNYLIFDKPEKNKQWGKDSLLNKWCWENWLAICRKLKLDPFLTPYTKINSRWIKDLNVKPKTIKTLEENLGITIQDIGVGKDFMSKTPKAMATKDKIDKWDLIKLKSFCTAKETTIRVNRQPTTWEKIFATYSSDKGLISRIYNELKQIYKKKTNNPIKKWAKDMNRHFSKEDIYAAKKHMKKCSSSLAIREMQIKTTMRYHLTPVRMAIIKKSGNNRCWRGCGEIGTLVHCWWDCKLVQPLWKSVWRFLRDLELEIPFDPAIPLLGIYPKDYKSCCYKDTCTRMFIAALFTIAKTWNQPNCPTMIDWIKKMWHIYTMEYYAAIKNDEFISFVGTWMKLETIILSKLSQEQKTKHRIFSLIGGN

On to “Regulator of nonsense transcripts 1 (from UniProt Q92900 1-1129) (natural protein)”, for which the RNase sensitivity relative to that of MOV10 came out at 62%.
